Experimental data from the Human Domainome abundance scans (Beltran et al. 2025).

B1: Peroxisome proliferator-activated receptor delta, residues 71 to 145; numbered along this chain, Q03181 (parent)
chain: NMECRVCGDKASGFHYGVHACEGCKGFFRRTIRMKLEYEKCERSCKIQKKNRNKCQYCRFQKCLALGMSHNAIRF

Variants of: B1
Assay: abundance fitness (aPCA) (normalised: wild type 0, dead -1); higher = more abundant; growth selection in yeast, the domain comes from the species named
Details: Homo sapiens

Abundance fitness, by site and new letter:
A20: H -0.594 | V -0.077 | P -0.792 | R -0.707 | M -0.456 | D -0.99 | C 0.139 | W -0.534 | N -0.222 | S -0.168 | Q -0.874 | I -0.023 | L -0.106 | E -0.886 | K -0.771 | F 0.145 | T -0.057 | G -0.847
E22: T -0.282 | V -0.325 | P -0.294 | R -0.293 | N -0.207 | S -0.405 | D -0.148 | F -0.343 | G -0.341 | M -0.205 | W -0.425 | Q -0.332 | A -0.256 | L -0.508 | C -0.258 | I -0.176 | Y -0.389 | K -0.297 | H -0.385
K10: I -0.052 | D -0.01 | W -0.206 | M -0.107 | P -0.268 | A -0.002 | G -0.191 | V 0 | E 0.007 | F -0.283 | S -0.106 | Q 0.08 | C -0.336 | L -0.018 | H -0.027 | N -0.075
G13: F -0.838 | S -0.212 | H -0.545 | N -0.01 | R -0.427 | A -0.239 | Y -0.385 | C -0.596 | M -0.431 | D -0.103 | E -0.274 | P -0.363 | Q -0.322 | W -0.708 | V -0.353 | I -0.324 | L -0.48
D9: R -0.348 | S -0.178 | L -0.63 | Q -0.374 | T -0.327 | M -0.436 | V -0.331 | W -0.618 | N -0.152
C21: H -0.714 | R -0.865 | Q -0.763 | D -0.875 | Y -0.599 | L -0.942 | S -0.867 | I -0.608 | P -1.14 | E -0.847 | T -0.83 | A -0.705 | W -0.881 | M -0.912 | K -0.597 | G -0.633
F27: P -0.876 | V -0.951 | I -0.994 | L -0.784 | G -0.789 | E -0.85 | A -0.934 | M -1.02 | C -0.719 | Q -0.958 | W -0.787 | Y -1.06 | D -0.41 | R -0.684 | K -0.772
H15: A -0.116 | I -0.154 | E -0.025 | T -0.174 | M -0.125 | C -0.044 | Y -0.088 | S -0.117 | D -0.027 | N -0.341 | Q -0.188 | G -0.285 | V -0.238 | F -0.006 | P -0.242 | K -0.61 | R -0.595
H19: R -0.049 | T 0.041 | Q 0.131 | G -0.205 | W -0.001 | K -0.047 | D 0.205 | N 0.063 | I 0.009 | F 0.247 | M 0.122 | P -0.028 | C 0.014 | Y 0.038 | A 0.11 | S 0.046 | V -0.083 | E 0.136
V18: I -0.051 | C -0.145 | E -0.398 | F -0.527 | N -0.372 | R -0.671 | H -0.764 | Q -0.39 | S -0.505 | W -0.721 | L -0.258 | D -0.396 | P -0.492 | Y -0.652 | A -0.104
S12: A -0.119 | W -0.579 | G -0.274 | K -0.248 | C -0.103 | F -0.115 | P -0.39 | V -0.222 | R -0.351 | H -0.238 | Q -0.115 | T -0.06 | N -0.098 | Y -0.138 | L -0.395 | E -0.123 | I -0.121
G26: H 0.221 | N 0.055 | V -0.004 | I 0.025 | P -1.02 | A 0.068 | C -0.139 | Y 0.084 | T 0.039 | M -0.09 | D 0.114 | W -0.174 | R -0.099 | F -0.125 | E 0.127
K25: S 0.105 | G 0.178 | D -0.048 | L 0.112 | H -0.19 | T 0.094 | V 0.109 | M 0.188 | P -0.878 | W 0.01 | F -0.108 | A 0.122 | I 0.061 | Y 0.114 | E 0.142 | R -0.003 | C -0.014 | Q -0.036
A11: I -0.154 | D -0.237 | H -0.218 | V -0.306 | T -0.147 | K -0.482 | L -0.338 | G -0.232 | C -0.367 | R -0.485 | Y -0.31 | S -0.091 | F -0.228 | M -0.337 | W -0.706 | P -0.197 | Q -0.546
G17: S -0.448 | H -0.682 | V -0.647 | L -0.692 | A -0.465 | T -0.567 | D -0.15 | Q -0.248 | I -0.813 | F -0.661 | W -0.918 | P -0.527 | E -0.27 | M -0.158 | N -0.238 | K -0.861 | R -0.777
R29: F 0.142 | A 0.191 | E 0.258 | C -0.009 | D 0.131
Y16: T -0.32 | A -0.065 | G -0.013 | E -0.023 | K -0.356 | Q -0.034 | R -0.533 | H -0.13 | D 0.126 | L -0.269 | W -0.27 | V -0.281 | N -0.032 | M -0.171 | F -0.085 | S -0.132
F14: G -0.299 | R -0.138 | E 0.066 | D 0.014 | V 0.018 | M -0.059 | I 0.002 | C -0.076 | K 0.006 | Q -0.064 | L 0.085 | N -0.066 | T 0.066 | P -0.14 | H -0.098 | W -0.118 | A -0.028 | Y 0.038
G23: E 0.17 | W 0.084 | T -0.203 | V -0.325 | N 0.109 | I -0.244 | D 0.192 | C 0.071 | Q -0.009 | F -0.001 | Y 0.021 | K -0.034 | R -0.179 | H 0.26 | L -0.061 | M 0.009 | S 0.146
C24: I -0.464 | Y -0.747 | M -0.648 | A -0.626 | R -0.823 | L -0.753 | E -0.924 | N -0.648 | K -0.6 | D -0.306 | Q -0.912 | H -0.15 | S -0.809 | T -0.723 | V -1.06 | F -0.364
F28: Y -0.159 | L -0.842 | N -0.586 | H -0.936 | C -0.882 | W -0.203 | Q -0.808 | A -0.603 | V -0.538 | P -0.406 | I -1.23 | T -0.909 | E -0.667 | R -0.823 | K -0.758 | M -0.156 | D -0.845 | S -0.625
